The target in the test is Full length LEF-1 (1-399) (human) (UniProt Q9UJU2).
Chain of UniProt Q9UJU2 (Q9UJU2 whole entry): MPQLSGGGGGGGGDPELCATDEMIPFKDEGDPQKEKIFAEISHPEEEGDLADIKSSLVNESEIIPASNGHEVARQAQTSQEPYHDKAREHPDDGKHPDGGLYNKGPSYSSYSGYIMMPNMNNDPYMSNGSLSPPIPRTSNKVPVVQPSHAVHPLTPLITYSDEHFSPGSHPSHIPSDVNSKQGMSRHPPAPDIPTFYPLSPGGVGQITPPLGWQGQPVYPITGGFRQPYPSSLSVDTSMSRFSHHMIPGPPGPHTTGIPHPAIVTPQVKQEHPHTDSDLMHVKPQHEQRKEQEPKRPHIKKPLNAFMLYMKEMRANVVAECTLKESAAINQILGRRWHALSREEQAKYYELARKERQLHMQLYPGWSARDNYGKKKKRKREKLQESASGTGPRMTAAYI

Molecule “GST-Groucho (Drosophila), recovered as a 97 kDa protease-stable fusion protein (from UniProt P16371 1-730) (natural protein)” gave a repression of LEF-1•β-catenin activated TOPFlash luciferase reporter in COS-1 cells, 250 and 500 ng Groucho expression vector of 3 fold.

On to “human TLE-2 (from UniProt Q04725 1-743) (natural protein)”, for which the repression of LEF-1•β-catenin activated TOPFlash luciferase reporter in COS-1 cells came out at 3 fold.

B1: human Amino-enhancer-of-split (AES) (natural protein)
chain: MMFPQSRHSGSSHLPQQLKFTTSDSCDRIKDEFQLLQAQYHSLKLECDKLASEKSEMQRHYVMYYEMSYGLNIEMHKQAEIVKRLNGICAQVLPYLSQEHQQQVLGAIERAKQVTAPELNSIIRQQLQAHQLSQLQALALPLTPLPVGLQPPSLPAVSAGTGLLSLSALGSQAHLSKEDKNGHDGDTHQEDDGEKSD
Regarding B1, the repression of LEF-1•β-catenin activated TOPFlash luciferase reporter in COS-1 cells, 250 and 500 ng AES expression vector was 3 fold.

The values above are taken from PMC2701438.
